Results taken from US20230159631A1 (ME THERAPEUTICS, published 2023).
Changes are numbered by the printed parent chain. Values belong to the binder of their own block, whether it stands above or below them.

Columns and labels:
[1] = biological target: T1, recombinant human G-CSF (Genscript) (human, UniProt P09919-2 31-204, limits assumed); assay: SPR (ProteOn), supernatant captured on anti-mouse Fc, human G-CSF analyte, average of two injections
T1 construct: also called hG-CSF; granulocyte colony stimulating factor
T1 sequence (looked up): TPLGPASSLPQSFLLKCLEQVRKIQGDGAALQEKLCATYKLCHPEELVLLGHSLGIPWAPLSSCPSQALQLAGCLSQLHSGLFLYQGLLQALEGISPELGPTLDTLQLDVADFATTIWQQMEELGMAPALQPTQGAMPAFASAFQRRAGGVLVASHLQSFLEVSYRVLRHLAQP
Description: (§1) Affinities of clones 2F6, 1B11, 3G5, 10B9, 9B7, 10G1, and 3B3 were measured by SPR. The work was carried out at the National Research Council of Canada (Montreal, Quebec).
(§2) 2.5% supernatants (except variants 1B11.2 and 10B9.1.2 used 4%) were captured on an anti-mouse Fc antibody, flowed with a 30, 10, 3.33, 1.11, and 0.37 nM concentration series of human G-CSF with buffer blank. Association (ka) and dissociation (kd) rates were measured using a BioRad ProteOn™ instrument. Affinity (KD) was calculated as […].

[2] = biological target: T1, recombinant human G-CSF (Genscript); assay: SPR (Antigen binding (SPR)); antibody captured on an anti-Fc surface, antigen flowed over; column head Koff (10-4 x s-1)
[3] = biological target: T1, recombinant human G-CSF (Genscript); assay: SPR (ProteOn), supernatant captured on anti-mouse Fc, human G-CSF analyte, injection #1
Description: as §1, §2

[4] = biological target: T1, recombinant human G-CSF (Genscript); assay: SPR (ProteOn), supernatant captured on anti-mouse Fc, human G-CSF analyte, injection #2
Description: as §1, §2

[5] = biological target: T1, recombinant human G-CSF (Genscript); assay: SPR (Antigen binding (SPR)); antibody captured on an anti-Fc surface, antigen flowed over

B2: anti-G-CSF antibody clone 3B3 (antibody, V domains shown)
VH: QVQLQQSGAELARPGASVKMSCKASGYTFTPYTMHWVKQRPGQDLEWIGYINPSINYTNYNQKFKDKATLTADKSSSTAYMQLSSLTSEDSAVYFCARRGSYGNFDYWGQGTTLTVSS
VL: DIVMTQAAFSNPVTLGTSASISCRSNKSLLHSNGITYLYWYLQKPGQSPQLLIYQMSNLASGVPDRFSSSGSGTDFTLRISRVEAEDVGVYYCAQNLELPLTFGAGTKLELK
notes: Mouse hybridoma monoclonal antibody; also called 3B3.2; 3B2
Kd [1]: 0.31 nM
Kd [3]: 0.329 nM
koff [3]: 0.000301 s⁻¹
kon [3]: 914000 M⁻¹ s⁻¹
Kd [4]: 0.293 nM
koff [4]: 0.000286 s⁻¹
kon [4]: 976000 M⁻¹ s⁻¹

B3: humanized 1B11 antibody variant 9 (h1L/h3H) (antibody, V domains shown)
VH: QVQLVQSGAEVKKPGASVKVSCKASGYTFPIYTMHWIKQAPGQGLEWIGYINPSIGYANYNQKFRDRATLTADKSTSTAYMELSSLRSEDTAVYYCARGGYGDSLFAYWGQGTLVTVSS
VL: DIVMTQSPLSLPVTPGEPASISCRSSKSLLHSNGITYLYWYLQKPGQSPQLLIYQMSNLASGVPDRFSGSGSGTDFTLKISRVEAEDVGVYYCAQNLELPYTFGQGTKLEIK
notes: variable domains only; also called clone 9
koff [2]: 0.00017 s⁻¹
Kd [5]: 0.19 nM

B9: humanized 1B11 antibody variant 7 (h1L/h1H) (antibody, V domains shown)
VH: B3 VH with I37V, K38R, I48M, A68V, L70I, K74T
VL: B3 VL
notes: also called clone 7; Variant 7 anti-G-CSF antibody
koff [2]: 0.00017 s⁻¹
Kd [5]: 0.29 nM

B10: humanized 1B11 antibody variant 8 (h1L/h2H) (antibody, V domains shown)
VH: B3 VH with K38R, K74T
VL: B3 VL
notes: variable domains only; also called clone 8
koff [2]: 0.00017 s⁻¹
Kd [5]: 0.29 nM

Other lines, results leading:

Kd [1]: 0.064 nM
koff [2]: 5e-05 s⁻¹
Kd [3]: 0.0663 nM
koff [3]: 5.15e-05 s⁻¹
kon [3]: 777000 M⁻¹ s⁻¹
Kd [4]: 0.0622 nM
koff [4]: 4.72e-05 s⁻¹
kon [4]: 758000 M⁻¹ s⁻¹
Kd [5]: 0.06 nM
B1: anti-G-CSF antibody clone 1B11 (antibody, V domains shown)
VH: QVHLQQSGAELARPGASVKMSCKASGYTFPIYTMHWIKQRPGQGLEWIGYINPSIGYANYNQKFRDKATLTADKSSSTAYMQLSSLTSEDSAVYYCARGGYGDSLFAYWGQGTLVTVSA
VL: B2 VL with N26S, L101Y, A105G, L111I
notes: Mouse hybridoma monoclonal antibody; also called 1B11.2; 3A3

koff [2]: 0.00012 s⁻¹
Kd [5]: 0.1 nM
B4: 1B11 antibody variant 1 (cL/cH) (antibody, V domains shown)
VH: B1 VH
VL: B2 VL with N26S, L101Y, A105G, L111I
notes: also called clone 1; chimeric 1B11

koff [2]: 0.00012 s⁻¹
Kd [5]: 0.2 nM
B5: humanized 1B11 antibody variant 13 (h2L/h2H) (antibody, V domains shown)
VH: B3 VH with K38R, K74T
VL: B3 VL with G69S
notes: variable domains only; also called clone 13

koff [2]: 0.00015 s⁻¹
Kd [5]: 0.16 nM
B6: humanized 1B11 antibody variant 10 (h1L/h4H) (antibody, V domains shown)
VH: B3 VH with Q3H, R67K
VL: B3 VL
notes: variable domains only; also called clone 10

koff [2]: 0.00013 s⁻¹
Kd [5]: 0.15 nM
B7: humanized 1B11 antibody variant 14 (h2L/h3H) (antibody, V domains shown)
VH: B3 VH
VL: B3 VL with G69S
notes: variable domains only; also called clone 14

koff [2]: 0.0001 s⁻¹
Kd [5]: 0.12 nM
B8: humanized 1B11 antibody variant 15 (h2L/h4H) (antibody, V domains shown)
VH: B3 VH with Q3H, R67K
VL: B3 VL with G69S
notes: variable domains only; also called clone 15
